Assay results from patent publication US20230310702A1, “SELF-ASSEMBLING PEPTIDES, PREPARATION METHODS, SELF-ASSEMBLING PEPTIDE FORMULATIONS AND USE” (Success Bio-Tech Co., Ltd., priority 2020, published 2023).
Entries after “also recorded” stand apart in the source; their conditions may differ.

Legend:
[1] = Fluidity / viscosity of peptide solutions on dissolution (observation); format: physicochemical; settings: for viscosity during dissolution: with increasing concentration
Method: (§1) Peptide solutions with different concentrations were prepared, and an appropriate amount of 10×PBS was added such that the final PBS concentration of the solution was 1×, after the solution was in contact with PBS to be triggered to be gel, the gel was taken out slowly with a spoon and placed onto a rheometer plate. A 40 mm plate was placed leaving the gap of about 450 µm, and kept at 37° C. for 5 minutes under a pressure of 1 pa, and frequency scanning was at 0.1 hz-10 hz. […] The highest concentration of the solution was set with the reference to the highest concentration at which a gel will not form immediately when the peptide was fully dissolved, according to which peptide solutions with a serial of diluted concentrations were prepared to perform storage modulus detections. For peptides represented by ① and ② in which the head and the tail are Pro, the storage modulus were able to reach 1000pa or higher after the PBS triggered the gelation, whereas before gelation, the solution can also maintain good fluidity.

[2] = Viscosity testing of peptide solution (rheometer); format: physicochemical; settings: shear rate 10 1/s
Method: A peptide solution was prepared, a 50 mm plate was chosen for the rheometer, a 1 mm gap was set, and 2 ml of the peptide solution was taken, and placed in the gap under the plate. The shear rate was set as 10 1/s. Average values were recorded.

[3] = Rheological property detection (storage modulus of triggered gel); format: physicochemical; settings: concentration of 2.5%; after contact with a metallic ion or change pH value
Method: as §1

[4] = tested on: rabbit back skin wound; assay: Rabbit hemostasis experiment on the back; format: in vivo, New Zealand rabbits
Method: Hemostatic procedures: a peptide aqueous solution ① with a concentration of 3% was prepared for rabbit hemostasis on the back. After injection of anesthesia via ear veins in New Zealand rabbits, a skin incision of about 1.5 cm was made on the back, and an incision depth was made until a blood vessel ruptured, and blood flowed out. After the blood flowed out was wiped off with a gauze, the peptide aqueous solution was sprayed onto a wound site immediately, and timing was conducted. In the hemostatic process, oozed blood was wiped constantly with a gauze, until no blood flowed out, and the timing was stopped, and after 1 minute, excess gel was removed, and the wound was observed whether the blood further oozed out.

[5] = tested on: colonic mucosa (submucosal layer); assay: Colonic submucosal injection of rabbits; format: in vivo, New Zealand rabbit; settings: 0.5 ml injected, 25G needle, observed 30 min; colon
Method: A New Zealand rabbit was fastened for 24 hours, injection of anesthesia was conducted via the ear vein, the abdomen was then opened, afterwards an open cutting was conducted along a midline of a colon to expose the colonic mucosa, 0.5 ml of normal saline was injected into the submucosal layer using a 25G needle. After observing for 30 min, the rabbit was sacrifice, a tissue was then taken out and fixed in formalin for 2 days, embedded by paraffin, sectioned, and finally stained with hematoxylin and eosin (FIG. 9B). 0.5 ml of a 10 mg/ml sodium hyaluronate solution (FIG. 9C) and 0.5 ml of a 3% peptide aqueous solution ① (FIG. 9D) were injected by the same method. An untreated normal tissue was used as a control (FIG. 9A).

[6] = tested on: liver wound; assay: Rabbit liver hemostasis experiment; format: in vivo
Method: Hemostatic process: a peptide aqueous solution ① with a concentration of 3% was prepared, abdomen was opened after anesthesia of the rabbit, liver was exposed, and after the hepatic vessel was lacerated, the blood flowed out. After the blood flowed out was wiped off with a gauze, the peptide aqueous solution was sprayed onto the wound site immediately, and timing was conducted.

[7] = tested on: stomach mucosa (posterior submucosal layer); assay: Rabbit stomach submucosal injection; format: in vivo, New Zealand rabbit; settings: 0.5 ml injected, 25G needle, observed 30 min
Method: After a New Zealand rabbit was fastened for 24 hours, injection anesthesia was conducted from the ear vein, the abdomen was then opened, afterwards a stoma was made in the anterior wall of the stomach to expose a stomach mucosa, and 0.5 ml of normal saline was injected into a posterior submucosal layer using a 25G needle. After being observed for 30 min, the rabbit was sacrificed, a tissue was then taken out and fixed in formalin for 2 days, embedded by paraffin, sectioned, and finally stained with hematoxylin and eosin (FIG. 8A). 0.5 ml of a 10 mg/ml sodium hyaluronate solution (FIG. 8B) and 0.5 ml of a 3% peptides ① water solution (FIG. 8C) were injected by the same method.

[8] = 3% peptide aqueous solution sprayed onto liver wound

Row | Substance | viscosity during dissolution [1] | Viscosity ([2]; concentration 1%) [mPa·s] | Viscosity ([2]; concentration 2%) [mPa·s] | fluidity of solution ([1]; before gelation) | Viscosity ([2]; concentration 3%) | Viscosity ([2]; concentration 4%) | other results
1 | AC-Arg-Ala-Asp-Ala-Arg-Ala-Asp-Ala-Arg-Ala-Asp-Ala-Arg-Ala-Asp-Ala- amide [compound ⑤] | increased with the increase of the concentrations | 955.17 | 1817.96 |  |  |  | fluidity of solution ([1]; concentration of 2.5%): almost lost fluidity; Viscosity ([2]; concentration 1%, listed as AC-(RADA)4-amide): high viscosity; also recorded: high viscosities; Viscosity ([2]; concentration 2.5%): 2514.57 mPa·s; storage modulus [3]: less than 700 pa
2 | AC-Arg-Val-Asp-Val-Arg-Val-Asp-Val-amide (Ac-RVDVRVDV-NH2) [comparison peptide without Pro in the viscosity test] |  | 658.25 | 1546.21 |  |  |  | Viscosity ([2]; concentration 1%, listed as AC-RVDVRVDV-amide): high viscosities
3 | AC-Pro-Arg-Val-Asp-Val-Arg-Pro-Asp-Val-Arg-Val-Asp-Pro-amide (Ac-PRVDVRPDVRVDP-NH2) [compound ④] | increased with the increase of the concentrations |  |  |  |  |  | 
4 | AC-Pro-Arg-Val-Asp-Val-Arg-Val-Asp-Pro-amide (Ac-PRVDVRVDP-NH2) [compound ①] |  |  |  | good fluidity | Under the detection limit | No viscosity numerical value was detected; also recorded: Under the detection limit | time until no blood flowed out ([4]; 3% peptide aqueous solution sprayed onto back skin incision): about 20 s; gel formation on the wound ([4]; 3% peptide aqueous solution sprayed onto back skin wound): formed immediately; bleeding after hydrogel covering the surface was removed ([4]; 3% peptide aqueous solution, back skin wound): no blood oozed out; submucosal filling (hematoxylin and eosin staining) [5]: filled with the peptide gel; gel formation on contact with blood [6, 8]: formed immediately; time until bleeding completely stopped [6, 8]: about 15 s; hemostasis after excess hydrogel was removed ([6]; 3% peptide aqueous solution, liver wound): hemostasis still obtained; submucosal cushion layer (hematoxylin and eosin staining) [7]: fine and tight, and not loose
5 | AC-Pro-Arg-Val-Asp-Val-Arg-Val-Asp-Val-amide (Ac-PRVDVRVDV-NH2) [compound ③] | increased with the increase of the concentrations |  |  |  |  |  | 
6 | AC-Pro-Lys-Val-Glu-Val-Lys-Val-Glu-Pro-amide (Ac-PKVEVKVEP-NH2) [compound ②] |  |  |  | good fluidity | Under the detection limit | No viscosity numerical value was detected; also recorded: Under the detection limit | 
